Holding throughout (assay): cryo-EM structure
One assay has as its target Chelator-GID^SR4 (S. cerevisiae, UniProt P53076 1-958; P40208 1-455; P40547 1-921; P38263 1-362; Q12508 1-421; P40492 …).
For assay [1], the target named is T1, RMND5A (RING subunit of the CTLH E3 catalytic module) (human, UniProt Q9H871 1-391).
T1 sequence: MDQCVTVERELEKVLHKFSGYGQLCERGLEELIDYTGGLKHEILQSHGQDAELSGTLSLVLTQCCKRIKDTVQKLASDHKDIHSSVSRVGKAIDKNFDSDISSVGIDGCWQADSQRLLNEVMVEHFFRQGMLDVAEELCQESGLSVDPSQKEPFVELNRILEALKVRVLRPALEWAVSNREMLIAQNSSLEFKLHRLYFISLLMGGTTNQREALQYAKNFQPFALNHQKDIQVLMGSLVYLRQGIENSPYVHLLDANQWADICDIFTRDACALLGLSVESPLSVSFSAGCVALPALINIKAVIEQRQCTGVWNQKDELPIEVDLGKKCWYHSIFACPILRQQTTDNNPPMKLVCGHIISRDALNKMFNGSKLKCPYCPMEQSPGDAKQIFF

Assay [2] has as its target T2, MAEA (U-box subunit of the CTLH E3 catalytic module) (human, UniProt Q7L5Y9 1-396).
T2 sequence: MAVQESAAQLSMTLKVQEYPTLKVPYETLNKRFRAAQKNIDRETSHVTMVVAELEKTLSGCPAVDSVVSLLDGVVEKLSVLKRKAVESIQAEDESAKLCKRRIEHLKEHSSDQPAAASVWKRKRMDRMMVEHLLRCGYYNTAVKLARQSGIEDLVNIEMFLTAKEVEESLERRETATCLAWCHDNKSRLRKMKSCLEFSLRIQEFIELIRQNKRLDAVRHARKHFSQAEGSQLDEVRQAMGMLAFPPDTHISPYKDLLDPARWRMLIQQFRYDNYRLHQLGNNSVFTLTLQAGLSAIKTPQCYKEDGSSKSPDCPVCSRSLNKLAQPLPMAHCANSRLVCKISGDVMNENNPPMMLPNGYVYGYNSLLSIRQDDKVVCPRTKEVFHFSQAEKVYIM

B1: Fbp1-6xHis (fructose-1,6-bisphosphatase) (natural protein, S. cerevisiae)
chain: MPTLVNGPRRDSTEGFDTDIITLPRFIIEHQKQFKNATGDFTLVLNALQFAFKFVSHTIRRAELVNLVGLAGASNFTGDQQKKLDVLGDEIFINAMRASGIIKVLVSEEQEDLIVFPTNTGSYAVCCDPIDGSSNLDAGVSVGTIASIFRLLPDSSGTINDVLRCGKEMVAACYAMYGSSTHLVLTLGDGVDGFTLDTNLGEFILTHPNLRIPPQKAIYSINEGNTLYWNETIRTFIEKVKQPQADNNNKPFSARYVGSMVADVHRTFLYGGLFAYPCDKKSPNGKLRLLYEAFPMAFLMEQAGGKAVNDRGERILDLVPSHIHDKSSIWLGSSGEIDKFLDHIGKSQ
As to B1, the binding result with Chelator-GID^SR4 is reported as “binds”.

B2: UBE2H C87K, insect cell-expressed and fully phosphorylated with CK2 (the E2 chain of the UBE2H~ubiquitin mimic) (enzyme, human, UniProt P62256 1-183, looked up)
chain: MSSPSPGKRRMDTDVVKLIESKHEVTILGGLNEFVVKFYGPQGTPYEGGVWKVRVDLPDKYPFKSPSIGFMNKIFHPNIDEASGTVKLDVINQTWTALYDLTNIFESFLPQLLAYPNPIDPLNGDAAAMYLHRPEEYKQKIKEYIQKYATEEALKEQEEGTGDSSSESSMSDFSEDEAQDMEL
modifications: phosphoserines 164, 165, 166, 168, 169, 171 and 174; K87 isopeptide-bonded to ubiquitin
On to B2, for which the binding result in assay [1] and in assay [2] was “binds” each time.

The record behind these values is publication PMC10843684 (Molecular cell, 2023).
